# Data reported in the supplement of paper PMC3353916.
# ± gives the standard deviation of the averaged measurements.
# System: Sindbis virus TE/5'2J-GFP
# Experiment: percent infected (GFP+ in RFP+ ISG-expressing cells); higher = more infection (less antiviral activity)
# Protocol: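 Confirmatory testing of 87 ISGs. Triplicate wells of BHK/HA-Zeo (control) or BHK/NZAP-Zeo (ZAP) cells were transduced with lentiviruses co-expressing a human ISG plus TagRFP, then infected 48 h later with SINV TE/5'2J-GFP (moi 5). The % GFP+ cells among RFP+ cells was measured by flow cytometry at 8 h post infection. Fluc lentivirus served as control. Three independent experiments.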
# [1] = experiment: confirmatory screen 1, BHK/HA-Zeo (control)
# [2] = experiment: confirmatory screen 1, BHK/NZAP-Zeo (ZAP)
# [3] = experiment: confirmatory screen 2, BHK/HA-Zeo (control)
# [4] = experiment: confirmatory screen 2, BHK/NZAP-Zeo (ZAP)
# [5] = experiment: confirmatory screen 3, BHK/HA-Zeo (control)
# [6] = experiment: confirmatory screen 3, BHK/NZAP-Zeo (ZAP)
# 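Also: Interferon-defective BHK-21 derivatives, ZAP line overexpressing the rat ZAP N-terminal zinc finger domain fused to Zeocin resistance, GFP scored within live singlet TagRFP+ cells.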
substance,measurement,setting,value
MSEIRKDTLKAILLELECHFTWNLLKEDIDLFEVEDTIGQQLEFLTTKSRLALYNLLAYVKHLKGQNKDALECLEQAEEIIQQEHSDKEEVRSLVTWGNYAWVYYHMDQLEEAQKYTGKIGNVCKKLSSPSNYKLECPETDCEKGWALLKFGGKYYQKAKAAFEKALEVEPDNPEFNIGYAITVYRLDDSDREGSVKSFSLGPLRKAVTLNPDNSYIKVFLALKLQDVHAEAEGEKYIEEILDQISSQPYVLRYAAKFYRRKNSWNKALELLKKALEVTPTSSFLHHQMGLCYRAQMIQIKKATHNRPKGKDKLKVDELISSAIFHFKAAMERDSMFAFAYTDLANMYAEGGQYSNAEDIFRKALRLENITDDHKHQIHYHYGRFQEFHRKSENTAIHHYLEALKVKDRSPLRTKLTSALKKLSTKRLCHNALDVQSLSALGFVYKLEGEKRQAAEYYEKAQKIDPENAEFLTALCELRLSI [IFIT5],percent infected,[1],81.6 ± 2.9%
same,percent infected,[2],50.4 ± 1.2%
same,percent infected,[3],95.17 ± 0.24%
same,percent infected,[4],95.34 ± 0.45%
same,percent infected,[5],88.13 ± 0.37%
same,percent infected,[6],90.56 ± 0.79%
MKLRSSHNASKTLNANNMETLIECQSEGDIKEHPLLASCESEDSICQLIEVKKRKKVLSWPFLMRRLSPASDFSGALETDLKASLFDQPLSIICGDSDTLPRPIQDILTILCLKGPSTEGIFRRAANEKARKELKEELNSGDAVDLERLPVHLLAVVFKDFLRSIPRKLLSSDLFEEWMGALEMQDEEDRIEALKQVADKLPRPNLLLLKHLVYVLHLISKNSEVNRMDSSNLAICIGPNMLTLENDQSLSFEAQKDLNNKVKTLVEFLIDNCFEIFGENIPVHSSITSDDSLEHTDSSDVSTLQNDSAYDSNDPDVESNSSSGISSPSRQPQVPMATAAGLDSAGPQDAREVSPEPIVSTVARLKSSLAQPDRRYSEPSMPSSQECLESRVTNQTLTKSEGDFPVPRVGSRLESEEAEDPFPEEVFPAVQGKTKRPVDLKIKNLAPGSVLPRALVLKAFSSSSLDASSDSSPVASPSSPKRNFFSRHQSFTTKTEKGKPSREIKKHSMSFTFAPHKKVLTKNLSAGSGKSQDFTRDHVPRGVRKESQLAGRIVQENGCETHNQTARGFCLRPHALSVDDVFQGADWERPGSPPSYEEAMQGPAARLVASESQTVGSMTVGSMRARMLEAHCLLPPLPPAHHVEDSRHRGSKEPLPGHGLSPLPERWKQSRTVHASGDSLGHVSGPGRPELLPLRTVSESVQRNKRDCLVRRCSQPVFEADQFQYAKESYI [TAGAP],percent infected,[1],91.3 ± 3%
same,percent infected,[2],64.8 ± 2.3%
same,percent infected,[3],86.1 ± 4.6%
same,percent infected,[4],92.53 ± 0.75%
same,percent infected,[5],85 ± 2%
same,percent infected,[6],89.95 ± 0.44%
MALLDVCGAPRGQRPESALPVAGSGRRSDPGHYSFSMRSPELALPRGMQPTEFFQSLGGDGERNVQIEMAHGTTTLAFKFQHGVIAAVDSRASAGSYISALRVNKVIEINPYLLGTMSGCAADCQYWERLLAKECRLYYLRNGERISVSAASKLLSNMMCQYRGMGLSMGSMICGWDKKGPGLYYVDEHGTRLSGNMFSTGSGNTYAYGVMDSGYRPNLSPEEAYDLGRRAIAYATHRDSYSGGVVNMYHMKEDGWVKVESTDVSDLLHQYREANQ [PSMB8],percent infected,[1],94.7 ± 1.4%
same,percent infected,[2],64.8 ± 5.2%
same,percent infected,[3],95.27 ± 0.2%
same,percent infected,[4],94.97 ± 0.39%
same,percent infected,[5],94.16 ± 0.23%
same,percent infected,[6],94.18 ± 0.46%
UBE2L6,percent infected,[1],95.97 ± 0.92%
same,percent infected,[2],78.8 ± 2.3%
same,percent infected,[3],96.37 ± 0.3%
same,percent infected,[4],95.27 ± 0.14%
same,percent infected,[5],94.34 ± 0.69%
same,percent infected,[6],93.02 ± 0.28%
MELRSYQWEVIMPALEGKNIIIWLPTGAGKTRAAAYVAKRHLETVDGAKVVVLVNRVHLVTQHGEEFRRMLDGRWTVTTLSGDMGPRAGFGHLARCHDLLICTAELLQMALTSPEEEEHVELTVFSLIVVDECHHTHKDTVYNVIMSQYLELKLQRAQPLPQVLGLTASPGTGGASKLDGAINHVLQLCANLDTWCIMSPQNCCPQLQEHSQQPCKQYNLCHRRSQDPFGDLLKKLMDQIHDHLEMPELSRKFGTQMYEQQVVKLSEAAALAGLQEQRVYALHLRRYNDALLIHDTVRAVDALAALQDFYHREHVTKTQILCAERRLLALFDDRKNELAHLATHGPENPKLEMLEKILQRQFSSSNSPRGIIFTRTRQSAHSLLLWLQQQQGLQTVDIRAQLLIGAGNSSQSTHMTQRDQQEVIQKFQDGTLNLLVATSVAEEGLDIPHCNVVVRYGLLTNEISMVQARGRARADQSVYAFVATEGSRELKRELINEALETLMEQAVAAVQKMDQAEYQAKIRDLQQAALTKRAAQAAQRENQRQQFPVEHVQLLCINCMVAVGHGSDLRKVEGTHHVNVNPNFSNYYNVSRDPVVINKVFKDWKPGGVISCRNCGEVWGLQMIYKSVKLPVLKVRSMLLETPQGRIQAKKWSRVPFSVPDFDFLQHCAENLSDLSLD [DHX58],percent infected,[1],95 ± 1.5%
same,percent infected,[2],75.7 ± 2.1%
same,percent infected,[3],95.81 ± 0.69%
same,percent infected,[4],95.7 ± 0.2%
same,percent infected,[5],94.51 ± 0.49%
same,percent infected,[6],94.61 ± 0.18%
MERISAFFSSIWDTILTKHQEGIYNTICLGVLLGLPLLVIITLLFICCHCCWSPPGKRGQQPEKNKKKKKKKKKKDEEDLWISAQPKLLQMEKRPSLPV [KIAA0040],percent infected,[1],93.9 ± 2.6%
same,percent infected,[2],62.7 ± 0.84%
same,percent infected,[3],96.75 ± 0.12%
same,percent infected,[4],95.133 ± 0.042%
same,percent infected,[5],87.2 ± 1.7%
same,percent infected,[6],87.8 ± 1.6%
MAGPERWGPLLLCLLQAAPGRPRLAPPQNVTLLSQNFSVYLTWLPGLGNPQDVTYFVAYQSSPTRRRWREVEECAGTKELLCSMMCLKKQDLYNKFKGRVRTVSPSSKSPWVESEYLDYLFEVEPAPPVLVLTQTEEILSANATYQLPPCMPPLDLKYEVAFWKEGAGNKTLFPVTPHGQPVQITLQPAASEHHCLSARTIYTFSVPKYSKFSKPTCFLLEVPEANWAFLVLPSLLILLLVIAAGGVIWKTLMGNPWFQRAKMPRALDFSGHTHPVATFQPSRPESVNDLFLCPQKELTRGVRPTPRVRAPATQQTRWKKDLAEDEEEEDEEDTEDGVSFQPYIEPPSFLGQEHQAPGHSEAGGVDSGRPRAPLVPSEGSSAWDSSDRSWASTVDSSWDRAGSSGYLAEKGPGQGPGGDGHQESLPPPEFSKDSGFLEELPEDNLSSWATWGTLPPEPNLVPGGPPVSLQTLTFCWESSPEEEEEARESEIEDSDAGSWGAESTQRTEDRGRTLGHYMAR [IL28RA],percent infected,[1],11.9 ± 5.4%
same,percent infected,[2],1.35 ± 0.22%
same,percent infected,[3],33 ± 1.4%
same,percent infected,[4],11.4 ± 0.84%
same,percent infected,[5],21.4 ± 1.5%
same,percent infected,[6],8.02 ± 0.72%
MSIMDHSPTTGVVTVIVILIAIAALGALILGCWCYLRLQRISQSEDEESIVGDGETKEPFLLVQYSAKGPCVERKAKLMTPNGPEVHG [SNN],percent infected,[1],95.8 ± 1.9%
same,percent infected,[2],86.47 ± 0.82%
same,percent infected,[3],96.15 ± 0.19%
same,percent infected,[4],95.59 ± 0.2%
same,percent infected,[5],93.27 ± 0.64%
same,percent infected,[6],92.87 ± 0.32%
MIAAQAKLVYQLNKYYTERCQARKAAIAKTIREVCKVVSDVLKEVEVQEPRFISSLSEIDARYEGLEVISPTEFEVVLYLNQMGVFNFVDDGSLPGCAVLKLSDGRKRSMSLWVEFITASGYLSARKIRSRFQTLVAQAVDKCSYRDVVKMIADTSEVKLRIRERYVVQITPAFKCTGIWPRSAAQWPMPHIPWPGPNRVAEVKAEGFNLLSKECYSLTGKQSSAESDAWVLQFGEAENRLLMGGCRNKCLSVLKTLRDRHLELPGQPLNNYHMKTLLLYECEKHPRETDWDESCLGDRLNGILLQLISCLQCRRCPHYFLPNLDLFQGKPHSALESAAKQTWRLAREILTNPKSLDKL [MAB21L2],percent infected,[1],77.4 ± 7.3%
same,percent infected,[2],48.7 ± 1.9%
same,percent infected,[3],93.37 ± 0.82%
same,percent infected,[4],93.8 ± 0.28%
same,percent infected,[5],85.5 ± 3.3%
same,percent infected,[6],86.9 ± 0.91%
MHQSLTQQRSSDMSLPDSMGAFNRRKRNSIYVTVTLLIVSVLILTVGLAATTRTQNVTVGGYYPGVILGFGSFLGIIGSNLIENKRQMLVASIVFISFGVIAAFCCAIVDGVFAARHIDLKPLYANRCHYVPKTSQKEAEEVISSSTKNSPSTRVMRNLTQAAREVNCPHLSREFCTPRIRGNTCFCCDLYNCGNRVEITGGYYEYIDVSSCQDIIHLYHLLWSATILNIVGLFLGIITAAVLGGFKDMNPTLPALNCSVENTHPTVSYYAHPQVASYNTYYHSPPHLPPYSAYDFQHSGVFPSSPPSGLSDEPQSASPSPSYMWSSSAPPRYSPPYYPPFEKPPPYSP [FAM70A],percent infected,[1],97.01 ± 0.45%
same,percent infected,[2],75.9 ± 2.9%
same,percent infected,[3],96.07 ± 0.48%
same,percent infected,[4],95.55 ± 0.12%
same,percent infected,[5],94.9 ± 0.5%
same,percent infected,[6],94.05 ± 0.37%
